Source: patent US20220089698A1 (published 2022)

B1: 1.13.15-1 (antibody, human IgG1, kappa)
heavy: QVQLLQSGAAVTKPGASVRVSCEASGYNIRDYFMHWVRQAPGQGLQWVGWINPKTGQPNNPRQFQGRVSLTRHASWDFDTFSFYMDLKALRSDDTAVYFCARQRSDYWDFDVWGSGTQVTVSSASTKGPSVFPLAPSSKSTSGGTAALGCLVKDYFPEPVTVSWNSGALTSGVHTFPAVLQSSGLYSLSSVVTVPSSSLGTQTYICNVNHKPSNTKVDKKVEPKSCDKTHTCPPCPAPELLAGPDVFLFPPKPKDTLMISRTPEVTCVVVDVSHEDPEVKFNWYVDGVEVHNAKTKPREEQYNSTYRVVSVLTVLHQDWLNGKEYKCKVSNKALPLPEEKTISKAKGQPREPQVYTLPPSREEMTKNQVSLTCLVKGFYPSDIAVEWESNGQPENNYKTTPPVLDSDGSFFLYSKLTVDKSRWQQGNVFSCSVLHEALHSHYTQKSLSLSPGK
light: DIQMTQSPSSLSASVGDTVTITCQANGYLNWYQQRRGKAPKLLIYDGSKLERGVPSRFSGRRWGQEYNLTINNLQPEDIATYFCQVYEFFVPGTRLDLKRTVAAPSVFIFPPSDEQLKSGTASVVCLLNNFYPREAKVQWKVDNALQSGNSQESVTEQDSKDSTYSLSSTLTLSKADYEKHKVYACEVTHQGLSSPVTKSFNRGEC
B2: 1.34.1-1 (antibody, human IgG1, kappa)
heavy: QVQLVQSGAEVKKPGASVRVSCKASGYNIRDYFIHWWRQAPGQGLQWVGWINPKTGQPNNPRQFQGRVTLTRHASWDFDTFSFYMDLKALRSDDTAVYFCARQRTDYWDFDVWGSGTQVTVSSASTKGPSVFPLAPSSKSTSGGTAALGCLVKDYFPEPVTVSWNSGALTSGVHTFPAVLQSSGLYSLSSVVTVPSSSLGTQTYICNVNHKPSNTKVDKKVEPKSCDKTHTCPPCPAPELLAGPDVFLFPPKPKDTLMISRTPEVTCVVVDVSHEDPEVKFNWYVDGVEVHNAKTKPREEQYNSTYRVVSVLTVLHQDWLNGKEYKCKVSNKALPLPEEKTISKAKGQPREPQVYTLPPSREEMTKNQVSLTCLVKGFYPSDIAVEWESNGQPENNYKTTPPVLDSDGSFFLYSKLTVDKSRWQQGNVFSCSVLHEALHSHYTQKSLSLSPGK
light: DIQMTQSPSSLSASVGDTVTITCQANGYLNWYQQRRGKAPKLLIYDGSKLERGVPSRFSGRRWGQEYNLTINNLQPEDIATYFCQVYEFVVPGTRLDLKRTVAAPSVFIFPPSDEQLKSGTASVVCLLNNFYPREAKVQWKVDNALQSGNSQESVTEQDSKDSTYSLSSTLTLSKADYEKHKVYACEVTHQGLSSPVTKSFNRGEC
B3: 1.36.1-1 (antibody, human IgG1, kappa)
heavy: QVQLVQSGAEVKKPGASVRVSCKASGYNIRDYFMHWWRQAPGQGLQWVGWINPKTGQPNNPRQFQGRVTMTRHASWDFDTFSAYMDLSRLRSDDTATYFCARQRTDYWDFDVWGQGTMVTVSSASTKGPSVFPLAPSSKSTSGGTAALGCLVKDYFPEPVTVSWNSGALTSGVHTFPAVLQSSGLYSLSSVVTVPSSSLGTQTYICNVNHKPSNTKVDKKVEPKSCDKTHTCPPCPAPELLAGPDVFLFPPKPKDTLMISRTPEVTCVVVDVSHEDPEVKFNWYVDGVEVHNAKTKPREEQYNSTYRVVSVLTVLHQDWLNGKEYKCKVSNKALPLPEEKTISKAKGQPREPQVYTLPPSREEMTKNQVSLTCLVKGFYPSDIAVEWESNGQPENNYKTTPPVLDSDGSFFLYSKLTVDKSRWQQGNVFSCSVLHEALHSHYTQKSLSLSPGK
light: DIQMTQSPSSLSASVGDTVTITCQANGYLNWYQQRRGKAPKLLIYDGSKLERGVPSRFSGRRWGQEYNLTINNLQPEDIATYFCQVYEFVVPGTRLDLKRTVAAPSVFIFPPSDEQLKSGTASVVCLLNNFYPREAKVQWKVDNALQSGNSQESVTEQDSKDSTYSLSSTLTLSKADYEKHKVYACEVTHQGLSSPVTKSFNRGEC
B4: 1.31.1-1 (antibody, human IgG1, kappa)
heavy: QVQLVQSGAEVTKPGASVRVSCEASGYNIRDYFIHWWRQAPGQGLQWVGWINPKTGQPNNPRQFQGRVSLTRHASWDFDTFSFYMDLKALRSDDTATYFCARQRSDYWDFDVWGSGTQVTVSSASTKGPSVFPLAPSSKSTSGGTAALGCLVKDYFPEPVTVSWNSGALTSGVHTFPAVLQSSGLYSLSSVVTVPSSSLGTQTYICNVNHKPSNTKVDKKVEPKSCDKTHTCPPCPAPELLAGPDVFLFPPKPKDTLMISRTPEVTCVVVDVSHEDPEVKFNWYVDGVEVHNAKTKPREEQYNSTYRVVSVLTVLHQDWLNGKEYKCKVSNKALPLPEEKTISKAKGQPREPQVYTLPPSREEMTKNQVSLTCLVKGFYPSDIAVEWESNGQPENNYKTTPPVLDSDGSFFLYSKLTVDKSRWQQGNVFSCSVLHEALHSHYTQKSLSLSPGK
light: DIQMTQSPSSLSASVGDTVTITCQANGYLNWYQQRRGKAPKLLIYDGSKLERGVPSRFSGRRWGQEYNLTINNLQPEDIATYFCQVYEFVVPGTRLDLKRTVAAPSVFIFPPSDEQLKSGTASVVCLLNNFYPREAKVQWKVDNALQSGNSQESVTEQDSKDSTYSLSSTLTLSKADYEKHKVYACEVTHQGLSSPVTKSFNRGEC
B5: 1.35.1-1 (antibody, human IgG1, kappa)
heavy: QVQLVQSGAEVKKPGASVRVSCKASGYNIRDYFMHWWRQAPGQGLQWVGWINPKTGQPNNPRQFQGRVTMTRHASWDFDTFSFYMDLSRLRSDDTATYFCARQRTDYWDFDVWGQGTMVTVSSASTKGPSVFPLAPSSKSTSGGTAALGCLVKDYFPEPVTVSWNSGALTSGVHTFPAVLQSSGLYSLSSVVTVPSSSLGTQTYICNVNHKPSNTKVDKKVEPKSCDKTHTCPPCPAPELLAGPDVFLFPPKPKDTLMISRTPEVTCVVVDVSHEDPEVKFNWYVDGVEVHNAKTKPREEQYNSTYRVVSVLTVLHQDWLNGKEYKCKVSNKALPLPEEKTISKAKGQPREPQVYTLPPSREEMTKNQVSLTCLVKGFYPSDIAVEWESNGQPENNYKTTPPVLDSDGSFFLYSKLTVDKSRWQQGNVFSCSVLHEALHSHYTQKSLSLSPGK
light: DIQMTQSPSSLSASVGDTVTITCQANGYLNWYQQRRGKAPKLLIYDGSKLERGVPSRFSGRRWGQEYNLTINNLQPEDIATYFCQVYEFVVPGTRLDLKRTVAAPSVFIFPPSDEQLKSGTASVVCLLNNFYPREAKVQWKVDNALQSGNSQESVTEQDSKDSTYSLSSTLTLSKADYEKHKVYACEVTHQGLSSPVTKSFNRGEC
B6: 1.32.1-1 (antibody, human IgG1, kappa)
heavy: QVQLVQSGAEVTKPGASVRVSCEASGYNIRDYFIHWWRQAPGQGLQWVGWINPKTGQPNNPRQFQGRVSLTRHASWDFDTFSFYMDLKALRSDDTAVYFCARQRTDYWDFDVWGSGTQVTVSSASTKGPSVFPLAPSSKSTSGGTAALGCLVKDYFPEPVTVSWNSGALTSGVHTFPAVLQSSGLYSLSSVVTVPSSSLGTQTYICNVNHKPSNTKVDKKVEPKSCDKTHTCPPCPAPELLAGPDVFLFPPKPKDTLMISRTPEVTCVVVDVSHEDPEVKFNWYVDGVEVHNAKTKPREEQYNSTYRVVSVLTVLHQDWLNGKEYKCKVSNKALPLPEEKTISKAKGQPREPQVYTLPPSREEMTKNQVSLTCLVKGFYPSDIAVEWESNGQPENNYKTTPPVLDSDGSFFLYSKLTVDKSRWQQGNVFSCSVLHEALHSHYTQKSLSLSPGK
light: DIQMTQSPSSLSASVGDTVTITCQANGYLNWYQQRRGKAPKLLIYDGSKLERGVPSRFSGRRWGQEYNLTINNLQPEDIATYFCQVYEFVVPGTRLDLKRTVAAPSVFIFPPSDEQLKSGTASVVCLLNNFYPREAKVQWKVDNALQSGNSQESVTEQDSKDSTYSLSSTLTLSKADYEKHKVYACEVTHQGLSSPVTKSFNRGEC
B7: 1.33.1-1 (antibody, human IgG1, kappa)
heavy: QVQLVQSGAEVKKPGASVRVSCKASGYNIRDYFIHWWRQAPGQGLQWVGWINPKTGQPNNPRQFQGRVTLTRHASWDFDTFSFYMDLKALRSDDTATYFCARQRSDYWDFDVWGSGTQVTVSSASTKGPSVFPLAPSSKSTSGGTAALGCLVKDYFPEPVTVSWNSGALTSGVHTFPAVLQSSGLYSLSSVVTVPSSSLGTQTYICNVNHKPSNTKVDKKVEPKSCDKTHTCPPCPAPELLAGPDVFLFPPKPKDTLMISRTPEVTCVVVDVSHEDPEVKFNWYVDGVEVHNAKTKPREEQYNSTYRVVSVLTVLHQDWLNGKEYKCKVSNKALPLPEEKTISKAKGQPREPQVYTLPPSREEMTKNQVSLTCLVKGFYPSDIAVEWESNGQPENNYKTTPPVLDSDGSFFLYSKLTVDKSRWQQGNVFSCSVLHEALHSHYTQKSLSLSPGK
light: DIQMTQSPSSLSASVGDTVTITCQANGYLNWYQQRRGKAPKLLIYDGSKLERGVPSRFSGRRWGQEYNLTINNLQPEDIATYFCQVYEFVVPGTRLDLKRTVAAPSVFIFPPSDEQLKSGTASVVCLLNNFYPREAKVQWKVDNALQSGNSQESVTEQDSKDSTYSLSSTLTLSKADYEKHKVYACEVTHQGLSSPVTKSFNRGEC
B8: 1.12.17-1 (antibody, human IgG1, kappa, V domains shown)
VH: QVQLLQSGAAVTKPGASVRVSCEASGYNIRDYFIHWVRQAPGQGLQWVGWINPKTGQPNNPRQFQGRVSLTRHASWDFDTFSFYMDLKALRSDDTAVYFCARQRSDYWDFDVWGSGTQVTVSS
VL: DIQMTQSPSSLSASVGDTVTITCQANGYLNWYQQRRGKAPKLLIYDGSKLERGVPSRFSGRRWGQEYNLTINNLQPEDIATYFCQVYEFFGPGTRLDLKR
B9: 1.13.17-1 (antibody, human IgG1, kappa, V domains shown)
VH: QVQLLQSGAAVTKPGASVRVSCEASGYNIRDYFMHWVRQAPGQGLQWVGWINPKTGQPNNPRQFQGRVSLTRHASWDFDTFSFYMDLKALRSDDTAVYFCARQRSDYWDFDVWGSGTQVTVSS
VL: DIQMTQSPSSLSASVGDTVTITCQANGYLNWYQQRRGKAPKLLIYDGSKLERGVPSRFSGRRWGQEYNLTINNLQPEDIATYFCQVYEFFGPGTRLDLKR
B10: 1.14.17-1 (antibody, human IgG1, kappa, V domains shown)
VH: QVQLLQSGAAVTKPGASVRVSCEASGYNIRDYFMHWVRQAPGQGLQWVGWINPKTGQPNNPRQFQGRVSLTRHASWDFDTFSAYMDLKALRSDDTAVYFCARQRSDYWDFDVWGSGTQVTVSS
VL: DIQMTQSPSSLSASVGDTVTITCQANGYLNWYQQRRGKAPKLLIYDGSKLERGVPSRFSGRRWGQEYNLTINNLQPEDIATYFCQVYEFFGPGTRLDLKR

Key:
HIV gp120 CAAN = HIV gp120 CAAN (HIV); assay: single-point ELISA; further: test concentration or dose not given here
HIV gp120 Bal = HIV gp120 Bal (HIV); assay: single-point ELISA; further: test concentration or dose not given here

Binder	ELISA (A450) (HIV gp120 CAAN)	ELISA (A450) (HIV gp120 Bal)
B1	0.6	0.7
B2	0.9	0.83
B3	0.75	1.13
B4	0.92	0.82
B5	0.87	0.84
B6	0.83	0.93
B7	0.98	0.88
B8	0.84	0.9
B9	0.78	1.02
B10	0.43	0.89
